Target: ACE2-ECD-sFc fusion protein (Homo sapiens)
Test: ELISA, plate coated with ACE2 ECD-sFc

Substance	EC50 [µg/mL]
S1-RBD-His protein (from UniProt P0DTC2 331-530) (ligand)	0.4
S1-RBD-His-HRP (from UniProt P0DTC2 331-530) (ligand)	0.19

From US20230109393A1
